The numbers were not newly measured in paper PMC11264262, which cites them from elsewhere.

The target of one data set is Glu73 (UniProt position 107, IFSNREGKLPG). The settings on record: folded protein.
The target in the next data set is His200 (UniProt position 200, RKGTVHDTALT).

As to “Barnase (Bacillus amyloliquefaciens (inferred; organism not stated in the article))”, the pKa (in general, the negative logarithm of the acid dissociation constant) with Glu73 was 2.1.

For “Homoprotocatechuate 2,3-dioxygenase (HPCD) (Brevibacterium fuscum (inferred; organism not stated in the article))”, the pKa entry in the data set with His200 is given as “ca. 7.65”.
